Patent publication US20070014767A1
Blank lines part the entries; values can stand above or below the molecule they belong to.

Experiments:
[1] = target: TGFβ1 (human recombinant) (human) (UniProt P01137); assay: cell-based or functional assay
[2] = target: TGFβ1 (human recombinant) (human) (UniProt P01137); assay: affinity labelling of MV-1-Lu cells with 125I-TGFβ1, titration of P144; details: scale: times the molar concentration of 125I-TGFβ1
[3] = target: TGFβ1 (human recombinant) (human) (UniProt P01137); assay: flow cytometry; inhibition of binding of TGFβ1-biotin to MV-1-Lu cell receptors, peptide 420 µg/ml, peptide incubated with TGFβ1-biotin
[4] = target: TGFβ1 cell receptors on MV-1-Lu cells (mink); assay: cell-based or functional assay
[5] = target: TGFβ1 cell receptors on MV-1-Lu cells (mink); assay: flow cytometry; inhibition of binding of TGFβ1-biotin to MV-1-Lu cell receptors, peptide 420 µg/ml, peptide incubated with the cells

TGFβ1 (human recombinant) (human), sequence (P01137 279-390 limits assumed): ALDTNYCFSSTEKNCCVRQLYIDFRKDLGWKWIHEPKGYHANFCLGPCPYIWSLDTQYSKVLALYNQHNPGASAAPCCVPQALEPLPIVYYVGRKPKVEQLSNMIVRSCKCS

B1: peptide P12(322-335) (peptide)
peptide: FCLGPCPYIWSLDTA
Bioassay (% inhibition) of TGFβ1 activity: growth of MV-1-Lu cells, TGFβ1 200 pg/ml, peptide 200 µg/ml [4]: 96%
Cytometry (% inhibition) [5]: 77%

B4: peptide P11(319-333) (peptide)
peptide: HANFCLGPCPYIWSLA
Bioassay (% inhibition) of TGFβ1 activity: growth of MV-1-Lu cells, TGFβ1 200 pg/ml, peptide 200 µg/ml [4]: 40%
Cytometry (% inhibition) [5]: 86%

The next lines start with the values.

Bioassay (% inhibition) of TGFβ1 activity: growth of MV-1-Lu cells, TGFβ1 200 pg/ml, peptide 200 µg/ml [1]: 88%
peptide concentration at which inhibition of 125I-TGFβ1 binding to the cell receptors is lost [2]: 200000
Cytometry (% inhibition) [3]: 80%
Molecule: peptide P144(729-742)

Bioassay (% inhibition) of TGFβ1 activity: growth of MV-1-Lu cells, TGFβ1 200 pg/ml, peptide 200 µg/ml [4]: 18.2%
Cytometry (% inhibition) [5]: 6.5%
B2: peptide P18(343-358) (peptide)
peptide: LYNQHNPGASAAPCCA

Bioassay (% inhibition) of TGFβ1 activity: growth of MV-1-Lu cells, TGFβ1 200 pg/ml, peptide 200 µg/ml [4]: 77.6%
Cytometry (% inhibition) [5]: 92.3%
B3: peptide P29(313-335) (peptide)
peptide: HEPKGYHANFCLGPCPYIWSLDT
